Test results from publication PMC3046972, “Phosphorylation-Dependent 14-3-3 Binding to LRRK2 Is Impaired by Common Mutations of Familial Parkinson's Disease” (PLoS ONE, 2011).
Where no end group is shown, it is not given here. [ ]: non-standard residue; d: D form. pS = N[C@@H](COP(=O)(O)O)C(=O)O

B1: phospho-peptide QRHSNpSLGPC (containing pS935 of LRRK2) (peptide)
peptide: Ac-QRHSN[pS]LGPC
notes: stretch of LRRK2 around S935; C-terminal cysteine printed only in the methods; The results print the peptide without the last C (QRHSNpSLGP); the methods print QRHSNpSLGPC; also called pS935-containing peptide; phosphorylated peptide (pS935); source: synthetic peptide (The Rockefeller University Proteomics Resource Center, HPLC purified)

Assays:
Myc-14-3-3γ wild type = Myc-14-3-3γ wild type (UniProt P61981); assay: co-IP; HEK-293T cells co-transfected with FLAG-LRRK2 (wild type or mutant) and Myc-14-3-3; immunoprecipitation with anti-Myc antibody overnight, washes with modified RIPA buffer (300 mM NaCl); blot with anti-FLAG; Figure 5C quantified with LI-COR Odyssey
GST-14-3-3γ = target: T1, GST-14-3-3γ (UniProt P61981 1-247); assay: pull-down; competition: synthetic peptide at various concentrations added to brain lysate of FLAG-LRRK2 Wt transgenic mice for 1 hour, then GST-14-3-3γ beads for 4 hours; read-out is the FLAG-LRRK2 pulled down; conditions: both partners purified
T1 construct: 14-3-3 gamma; also called purified GST-14-3-3γ; Sepharose bead-conjugated GST-14-3-3γ; source: bacteria (100 µM IPTG, 4 hours at 37°C), purified following the manufacturer's instruction (GE Healthcare)
T1 sequence (looked up): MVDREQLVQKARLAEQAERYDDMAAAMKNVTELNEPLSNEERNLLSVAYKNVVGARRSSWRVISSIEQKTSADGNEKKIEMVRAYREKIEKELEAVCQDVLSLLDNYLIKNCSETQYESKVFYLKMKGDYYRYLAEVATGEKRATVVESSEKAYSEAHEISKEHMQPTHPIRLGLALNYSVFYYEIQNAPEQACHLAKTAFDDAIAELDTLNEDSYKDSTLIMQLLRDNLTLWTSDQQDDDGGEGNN

Molecule	reduction of co-immunoprecipitation with Myc-14-3-3γ compared to wild type LRRK2 (Myc-14-3-3γ wild type)	binding result (GST-14-3-3γ)
FLAG-LRRK2 G2019S mutant, Q5S006 1-2527	< 20%	
FLAG-LRRK2 S935A mutant (from UniProt Q5S006 1-2527) (natural protein)	90%	
B1		binds
